Reference: paper PMC10957154

Molecular target: T1, DJ-1 (mouse (endogenous in mouse frontal cortex)), Q99LX0
T1 chain: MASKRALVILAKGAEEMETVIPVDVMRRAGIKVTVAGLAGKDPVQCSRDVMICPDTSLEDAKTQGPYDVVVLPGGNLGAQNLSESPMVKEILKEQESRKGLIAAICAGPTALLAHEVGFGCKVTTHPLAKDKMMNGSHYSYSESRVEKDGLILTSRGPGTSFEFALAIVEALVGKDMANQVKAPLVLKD
Experiment: cross-linking
Settings: remark: other sources report otherwise

B1: DJ-1, Q99LX0 1-189 (natural protein)
chain: MASKRALVILAKGAEEMETVIPVDVMRRAGIKVTVAGLAGKDPVQCSRDVMICPDTSLEDAKTQGPYDVVVLPGGNLGAQNLSESPMVKEILKEQESRKGLIAAICAGPTALLAHEVGFGCKVTTHPLAKDKMMNGSHYSYSESRVEKDGLILTSRGPGTSFEFALAIVEALVGKDMANQVKAPLVLKD
- stoichiometry N: 2
